Measured values from US20260139061A1 (Novartis, published 2026).

B1: CAR10 (Anti-EGFRvIII clone 139), full CAR on cells (other)
chain: DIQMTQSPSSLSASVGDRVTITCRASQGIRNNLAWYQQKPGKAPKRLIYAASNLQSGVPSRFTGSGSGTEFTLIVSSLQPEDFATYYCLQHHSYPLTSGGGTKVEIKRTGSTSGSGKPGSGEGSEVQVLESGGGLVQPGGSLRLSCAASGFTFSSYAMSWVRQAPGKGLEWVSAISGSGGSTNYADSVKGRFTISRDNSKNTLYLQMNSLRAEDTAVYYCAGSSGWSEYWGQGTLVTVSSTTTPAPRPPTPAPTIASQPLSLRPEACRPAAGGAVHTRGLDFACDIYIWAPLAGTCGVLLLSLVITLYCKRGRKKLLYIFKQPFMRPVQTTQEEDGCSCRFPEEEEGGCELRVKFSRSADAPAYKQGQNQLYNELNLGRREEYDVLDKRRGRDPEMGGKPRRKNPQEGLYNELQKDKMAEAYSEIGMKGERRRGKGHDGLYQGLSTATKDTYDALHMQALPPR
notes: Chimeric antigen receptor (139 scFv, CD8 hinge and TM, 4-1BB, CD3 zeta) on Jurkat, JNL or primary human T cells; also called human CAR10
B2: CAR2 - Soluble scFv (scFv)
scFv: DVVMTQSPDSLAVSLGERATINCKSSQSLLDSDGKTYLNWLQQKPGQPPKRLISLVSKLDSGVPDRFSGSGSGTDFTLTISSLQAEDVAVYYCWQGTHFPGTFGGGTKVEIKGGGGSGGGGSGGGGSGGGGSEIQLVQSGAEVKKPGATVKISCKGSGFNIEDYYIHWVQQAPGKGLEWMGRIDPENDETKYGPIFQGRVTITADTSTNTVYMELSSLRSEDTAVYYCAFRGGVYWGQGTTVTVSSGSHHHHHHHH
notes: Soluble His-tagged humanized scFv; also called humanized EGFRvIII scFv variant, VK4-VH1, 4G4S
B3: CAR4 - Soluble scFv (scFv)
scFv: DVVMTQSPLSLPVTLGQPASISCKSSQSLLDSDGKTYLNWLQQRPGQSPRRLISLVSKLDSGVPDRFSGSGSGTDFTLKISRVEAEDVGVYYCWQGTHFPGTFGGGTKVEIKGGGGSGGGGSGGGGSGGGGSEIQLVQSGAEVKKPGESLRISCKGSGFNIEDYYIHWVRQMPGKGLEWMGRIDPENDETKYGPIFQGHVTISADTSINTVYLQWSSLKASDTAMYYCAFRGGVYWGQGTTVTVSSGSHHHHHHHH
notes: Soluble His-tagged humanized scFv; also called humanized EGFRvIII scFv variant, VK2-VH5, 4G4S
B4: CAR8 - Soluble scFv (scFv)
scFv: DVVMTQSPLSLPVTLGQPASISCKSSQSLLDSDGKTYLNWLQQRPGQSPRRLISLVSKLDSGVPDRFSGSGSGTDFTLKISRVEAEDVGVYYCWQGTHFPGTFGGGTKVEIKGGGGSGGGGSGGGGSGGGGSEIQLVQSGAEVKKPGATVKISCKGSGFNIEDYYIHWVQQAPGKGLEWMGRIDPENDETKYGPIFQGRVTITADTSTNTVYMELSSLRSEDTAVYYCAFRGGVYWGQGTTVTVSSGSHHHHHHHH
notes: Soluble His-tagged humanized scFv; also called humanized EGFRvIII scFv variant, VK2-VH1, 4G4S
B5: CAR5 - Soluble scFv (scFv)
scFv: EIQLVQSGAEVKKPGATVKISCKGSGFNIEDYYIHWVQQAPGKGLEWMGRIDPENDETKYGPIFQGRVTITADTSTNTVYMELSSLRSEDTAVYYCAFRGGVYWGQGTTVTVSSGGGGSGGGGSGGGGSGGGGSDVVMTQSPLSLPVTLGQPASISCKSSQSLLDSDGKTYLNWLQQRPGQSPRRLISLVSKLDSGVPDRFSGSGSGTDFTLKISRVEAEDVGVYYCWQGTHFPGTFGGGTKVEIKGSHHHHHHHH
notes: Soluble His-tagged humanized scFv; also called humanized EGFRvIII scFv variant, VH1-VK2, 4G4S
B6: CAR1 Soluble scFv (scFv)
scFv: EIQLVQSGAEVKKPGATVKISCKGSGFNIEDYYIHWVQQAPGKGLEWMGRIDPENDETKYGPIFQGRVTITADTSTNTVYMELSSLRSEDTAVYYCAFRGGVYWGQGTTVTVSSGGGGSGGGGSGGGGSGGGGSDVVMTQSPDSLAVSLGERATINCKSSQSLLDSDGKTYLNWLQQKPGQPPKRLISLVSKLDSGVPDRFSGSGSGTDFTLTISSLQAEDVAVYYCWQGTHFPGTFGGGTKVEIKGSHHHHHHHH
notes: Soluble His-tagged humanized scFv; also called humanized EGFRvIII scFv variant, VH1-VK4, 4G4S
B7: CAR 3 - Soluble scFv (scFv)
scFv: EIQLVQSGAEVKKPGESLRISCKGSGFNIEDYYIHWVRQMPGKGLEWMGRIDPENDETKYGPIFQGHVTISADTSINTVYLQWSSLKASDTAMYYCAFRGGVYWGQGTTVTVSSGGGGSGGGGSGGGGSGGGGSDVVMTQSPLSLPVTLGQPASISCKSSQSLLDSDGKTYLNWLQQRPGQSPRRLISLVSKLDSGVPDRFSGSGSGTDFTLKISRVEAEDVGVYYCWQGTHFPGTFGGGTKVEIKGSHHHHHHHH
notes: Soluble His-tagged humanized scFv; also called humanized EGFRvIII scFv variant, VH5-VK2, 4G4S

target: T1, EGFRvIII-Fc fusion protein (UniProt P00533 25-645); assay: flow cytometry, Jurkat E6 cells electroporated with the CAR vector, stained with different concentrations of Fc fusion protein and PE anti-human IgG Fc
T1 construct: Soluble reagent used at different concentrations to stain CAR-transfected Jurkat cells; not shown: Fc part; detected with PE anti-human IgG Fc
Method: Jurkat E6 cells were electroporated with either CAR9 vector or CAR10 vector using Amaxa Cell Line Nucleofector Kit V (Lonza, Colgne AG, Germany) and program X-001. One day after the transfection, 0.5×10⁶ cells were placed into each well of a V-shape 96 well plate (Greiner Bio-One, Germany) in 0.2 ml FACS buffer (DPBS buffer containing 5% FBS) and incubated for 10 minutes at room temperature. Cells were then spun down and resuspended in 0.2 ml of the FACS buffer with different concentrations of EGFRvIII-Fc or EGFRwt-Fc and incubated at 4° C. for 30 minutes. Cells were then washed with FACS buffer three times, and incubated with 0.2 ml of the FACS buffer with 2 μl of PE anti-human IgG Fc (Jackson ImmunoResearch Laboratories, West Grove, PA) for 30 minutes at 4° C. in the dark. After washing with 0.2 ml of FACS buffer three times, cells were analyzed on a LSRII (BD Biosciences, San Jose, CA) machine using the FACSDiva software (BD Biosciences, San Jose, CA). Immunofluorescence staining was analyzed as the relative log fluorescence of live cells, and the percentage of the PE positive cells were measured.

Row | Binder | fold lower binding compared to CAR9 [fold]
1 | B1 | ~40

target: T2, human EGFRvIII (epidermal growth factor receptor variant III), expressed on cells (human, UniProt P00533 25-1210); assay: flow cytometry (FACS), purified His-tagged scFv on HEK293F cells transiently transfected with hEGFRvIII
T2 construct: whole, on cells; also called hEGFRvIII; hEGFRvII
Method: HEK293F suspension cells were transiently transfected with either wild type hEGFR or hEGFRvII and were harvested 2 days after transfection. Approximately 5e5 cells/per well were transferred to a BD Falcon 96 well plate. The cells were spun down at 900 rpm (Sorval Legend XT centrifuge) for 3 minutes. The supernatant was removed. Anti-EGFRvII scFv protein samples were diluted in DPBS with 5% FBS. The samples were added into the wells, mixed and incubated for 1 hour. The cells were washed twice in the DPBS with 5% FBS. The cells were incubated with anti-poly His PE (R&D) for 1 hour, washed twice before FACS analysis (LSRII from BD Biosciences).

Row | Binder | binding result
2 | B2 | binds
3 | B3 | binds
4 | B4 | binds
5 | B5 | binds
6 | B6 | binds
7 | B7 | binds
